One block for each binder: values may come before it.
Legend:
ASCC3HR = ASCC3HR (human, UniProt Q8N3C0 401-2202); test: MST; no ATP; Hill fit EC50; MST: 20 mM HEPES-NaOH pH 7.5, 300 mM NaCl, 5% glycerol, 1 mM DTT, room temperature, 50 nM final Cy5-T48; UV cross-linking: 50 mM HEPES-NaOH pH 7.5, 80 mM NaCl; details: protein: recombinant; tags: N-terminal His10, TEV-cleaved; label: 5'-Cy5; single strand
TRIP4 = biological target: T1, TRIP4 (UniProt Q15650 1-581); test: as above; details: protein: recombinant; tags: N-terminal His6, TEV-cleaved; label: 5'-Cy5; single strand
T1 sequence: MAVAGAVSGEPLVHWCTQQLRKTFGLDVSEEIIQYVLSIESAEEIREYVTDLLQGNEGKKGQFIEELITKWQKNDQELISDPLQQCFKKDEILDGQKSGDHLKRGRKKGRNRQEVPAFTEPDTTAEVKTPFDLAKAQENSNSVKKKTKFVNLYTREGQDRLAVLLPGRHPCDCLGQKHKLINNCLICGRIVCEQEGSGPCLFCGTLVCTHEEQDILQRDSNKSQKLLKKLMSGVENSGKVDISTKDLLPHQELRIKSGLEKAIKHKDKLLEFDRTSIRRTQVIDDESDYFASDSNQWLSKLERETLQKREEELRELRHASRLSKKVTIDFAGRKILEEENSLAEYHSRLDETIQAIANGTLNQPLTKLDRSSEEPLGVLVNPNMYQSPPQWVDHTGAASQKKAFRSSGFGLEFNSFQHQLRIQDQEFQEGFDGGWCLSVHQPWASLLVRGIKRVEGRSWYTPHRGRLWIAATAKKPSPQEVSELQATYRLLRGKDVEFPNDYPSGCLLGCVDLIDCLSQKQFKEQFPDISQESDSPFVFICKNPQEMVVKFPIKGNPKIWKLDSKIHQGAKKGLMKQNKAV

ASCC3HR;TRIP4 = ASCC3HR;TRIP4 (human;human?, UniProt Q8N3C0;Q15650 401-2202;1-581, |); test: as above; details: protein: recombinant;recombinant; tags: N-terminal His10, TEV-cleaved;N-terminal His6, TEV-cleaved; copies: 1;1; label: 5'-Cy5; single strand
ASCC3HR;TRIP4, sequence (Q8N3C0 401-2202, one chain of several): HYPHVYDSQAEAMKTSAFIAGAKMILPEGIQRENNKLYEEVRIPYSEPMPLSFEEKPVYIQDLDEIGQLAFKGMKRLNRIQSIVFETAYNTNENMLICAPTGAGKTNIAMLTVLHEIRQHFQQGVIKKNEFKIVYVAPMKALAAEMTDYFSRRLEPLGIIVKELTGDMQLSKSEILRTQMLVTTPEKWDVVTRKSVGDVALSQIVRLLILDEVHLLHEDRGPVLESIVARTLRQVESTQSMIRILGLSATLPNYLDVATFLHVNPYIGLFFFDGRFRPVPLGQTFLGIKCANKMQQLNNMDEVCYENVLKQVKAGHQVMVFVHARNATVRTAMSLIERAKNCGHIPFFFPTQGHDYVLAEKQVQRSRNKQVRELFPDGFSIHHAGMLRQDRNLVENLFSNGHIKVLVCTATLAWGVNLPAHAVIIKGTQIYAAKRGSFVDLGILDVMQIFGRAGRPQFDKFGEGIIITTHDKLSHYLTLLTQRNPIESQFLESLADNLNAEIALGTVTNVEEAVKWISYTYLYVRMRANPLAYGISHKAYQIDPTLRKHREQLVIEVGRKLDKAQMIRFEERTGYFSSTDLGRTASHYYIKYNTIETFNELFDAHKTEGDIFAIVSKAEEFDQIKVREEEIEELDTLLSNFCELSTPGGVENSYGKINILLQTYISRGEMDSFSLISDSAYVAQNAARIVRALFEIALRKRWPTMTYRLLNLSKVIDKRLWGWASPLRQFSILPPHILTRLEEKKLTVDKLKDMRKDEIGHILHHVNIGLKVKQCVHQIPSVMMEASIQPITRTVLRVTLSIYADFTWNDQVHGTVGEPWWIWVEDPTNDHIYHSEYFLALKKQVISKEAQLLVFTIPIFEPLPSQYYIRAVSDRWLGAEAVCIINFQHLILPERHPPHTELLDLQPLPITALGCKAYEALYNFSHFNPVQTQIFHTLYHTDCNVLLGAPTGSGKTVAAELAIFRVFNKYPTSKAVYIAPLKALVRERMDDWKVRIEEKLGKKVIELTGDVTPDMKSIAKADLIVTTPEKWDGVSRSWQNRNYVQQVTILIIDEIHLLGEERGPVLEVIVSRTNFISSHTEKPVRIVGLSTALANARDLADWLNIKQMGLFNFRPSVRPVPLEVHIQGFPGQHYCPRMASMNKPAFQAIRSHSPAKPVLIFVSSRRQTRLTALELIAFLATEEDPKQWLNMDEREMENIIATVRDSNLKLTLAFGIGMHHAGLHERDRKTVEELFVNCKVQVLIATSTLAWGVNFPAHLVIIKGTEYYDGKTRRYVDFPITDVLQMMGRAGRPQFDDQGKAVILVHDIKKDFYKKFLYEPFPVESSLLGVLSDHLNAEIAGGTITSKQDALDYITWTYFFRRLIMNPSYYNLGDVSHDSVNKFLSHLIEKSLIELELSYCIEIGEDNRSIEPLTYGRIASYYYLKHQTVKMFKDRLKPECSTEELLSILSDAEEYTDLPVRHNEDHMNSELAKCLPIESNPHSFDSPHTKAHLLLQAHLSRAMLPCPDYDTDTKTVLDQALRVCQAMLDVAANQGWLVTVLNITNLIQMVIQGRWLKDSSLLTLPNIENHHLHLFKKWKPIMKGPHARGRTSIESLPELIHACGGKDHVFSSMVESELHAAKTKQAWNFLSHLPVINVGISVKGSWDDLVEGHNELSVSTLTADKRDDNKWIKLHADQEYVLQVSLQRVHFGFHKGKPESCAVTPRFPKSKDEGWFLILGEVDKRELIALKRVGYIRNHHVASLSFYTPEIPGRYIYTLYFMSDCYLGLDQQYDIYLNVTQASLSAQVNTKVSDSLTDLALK

ASCC3HR;TRIP4 1-230 = ASCC3HR;TRIP4 1-230 (human;human?, UniProt Q8N3C0;Q15650 401-2202;1-230, |); test: as above; details: protein: recombinant;recombinant; tags: N-terminal His10, TEV-cleaved;N-terminal His6, TEV-cleaved; copies: 1;1; label: 5'-Cy5; single strand
ASCC3HR;TRIP4 1-230, sequence (Q8N3C0 401-2202, one chain of several): as above

[1] = biological target: T2, ASCC3 helicase region (ASCC3^HR, residues 401-2202) (human, UniProt Q8N3C0 401-2202); test: cell-based or functional assay
T2 sequence (Q8N3C0 401-2202): as the sequence (Q8N3C0 401-2202, one chain of several) above

[2] = biological target: T2, ASCC3 helicase region (ASCC3^HR, …); test: SEC; analytical SEC for competitive binding, Superdex 200 3.2/300; 120 pmol ASCC3^HR with 360 pmol TRIP4 and/or ALKBH3 in 100 µl, 30 min on ice; fractions by SDS-PAGE, Coomassie; details: both partners purified
[3] = biological target: T2, ASCC3 helicase region (ASCC3^HR, …); test: SEC; analytical SEC, Superdex 200 3.2/300; 20 mM HEPES-NaOH pH 7.5, 250 mM NaCl, 5% glycerol, 1 mM DTT; 100 pmol ASCC3^HR mixed with other proteins in two to tenfold molar excess in 80 µl, 30 min on ice; fractions by SDS-PAGE; details: both partners purified

ASCC3HR, sequence (Q8N3C0 401-2202): as the sequence (Q8N3C0 401-2202, one chain of several) above

Binder: TTTTTTTTTTTTTTTTTTTTTTTTTTTTTTTTTTTTTTTTTTTTTTTT (ssDNA) [T48 (Cy5)]
- apparent K (half saturation) (ASCC3HR): 551 ± 194 nM
- apparent K (half saturation) (TRIP4): 903 ± 24 nM
- apparent K (half saturation) (ASCC3HR;TRIP4): 53 ± 3 nM
- apparent K (half saturation) (ASCC3HR;TRIP4 1-230): 468 ± 63 nM

- amplitude-weighted DNA unwinding rate constant (kuaw) of ASCC3^HR with TRIP4, stopped-flow fluorescence, no trap (ASCC3^HR alone 0.024 s^-1; stimulated 2.3-fold) [1]: 0.054 s⁻¹
B1: TRIP4, full length, co-produced with ASCC3^HR in insect cells (natural protein, human, UniProt Q15650 1-581, looked up)
chain: T1 sequence

- binding result [2]: binds
B2: ALKBH3 (alpha-ketoglutarate/iron-dependent dioxygenase, DNA/RNA dealkylase), full length (enzyme, human, UniProt Q96Q83 1-286, looked up)
chain: MEEKRRRARVQGAWAAPVKSQAIAQPATTAKSHLHQKPGQTWKNKEHHLSDREFVFKEPQQVVRRAPEPRVIDREGVYEISLSPTGVSRVCLYPGFVDVKEADWILEQLCQDVPWKQRTGIREDITYQQPRLTAWYGELPYTYSRITMEPNPHWHPVLRTLKNRIEENTGHTFNSLLCNLYRNEKDSVDWHSDDEPSLGRCPIIASLSFGATRTFEMRKKPPPEENGDYTYVERVKIPLDHGTLLIMEGATQADWQHRVPKEYHSREPRVNLTFRTVYPDPRGAPW
notes: ALKBH3, human, full length, amplified from a cDNA library of human HeLa cells, pETM-11; source: E. coli C2566, purified (Ni-NTA, TEV, heparin, SEC); not shown: His6, N-terminal, cleaved

- binding result [3]: binds
B3: TRIP4^152-581 (domain or fragment, human, UniProt Q15650 152-581, looked up)
chain: LYTREGQDRLAVLLPGRHPCDCLGQKHKLINNCLICGRIVCEQEGSGPCLFCGTLVCTHEEQDILQRDSNKSQKLLKKLMSGVENSGKVDISTKDLLPHQELRIKSGLEKAIKHKDKLLEFDRTSIRRTQVIDDESDYFASDSNQWLSKLERETLQKREEELRELRHASRLSKKVTIDFAGRKILEEENSLAEYHSRLDETIQAIANGTLNQPLTKLDRSSEEPLGVLVNPNMYQSPPQWVDHTGAASQKKAFRSSGFGLEFNSFQHQLRIQDQEFQEGFDGGWCLSVHQPWASLLVRGIKRVEGRSWYTPHRGRLWIAATAKKPSPQEVSELQATYRLLRGKDVEFPNDYPSGCLLGCVDLIDCLSQKQFKEQFPDISQESDSPFVFICKNPQEMVVKFPIKGNPKIWKLDSKIHQGAKKGLMKQNKAV
notes: source: E. coli BL21 (DE3), purified (Ni-NTA, TEV, heparin, SEC); not shown: His6, N-terminal, cleaved

- binding result [3]: binds
B4: TRIP4^152-230 (domain or fragment, human, UniProt Q15650 152-230, looked up)
chain: LYTREGQDRLAVLLPGRHPCDCLGQKHKLINNCLICGRIVCEQEGSGPCLFCGTLVCTHEEQDILQRDSNKSQKLLKKL
notes: TRIP4, human, residues 152-230 (ZnF domain); also called ZnF domain alone; source: E. coli BL21 (DE3), purified (Ni-NTA, TEV, SEC); not shown: His6, N-terminal, cleaved
